Earlier results, collected in paper PMC6244792.
Where “and” joins values, the source holds several entries; their conditions need not be identical. Equal values may be shown once. Read-outs that look alike come from different tables or passages of the source.

What was measured:
[1] = target: LHCP L11 peptide (Arabidopsis thaliana); experiment: FA
[2] = target: Alb3 C-terminus (Arabidopsis thaliana) (UniProt Q8LBP4); experiment: FA
[3] = target: LHCP L18 peptide (Arabidopsis thaliana); experiment: ITC
[4] = target: cpSRP54 peptide RRKRp10 RRKRp10 (Arabidopsis thaliana) (UniProt P37107)
[5] = target: cpSRP54 M domain (Arabidopsis thaliana) (UniProt P37107); experiment: SPR
[6] = target: LHCP L18 peptide (Arabidopsis thaliana); experiment: ITC; remark: listed apart in the source
[7] = target: RRKRp10 (cpSRP54 C-terminal peptide) (Arabidopsis thaliana) (UniProt P37107)
[8] = target: cpSRP54 (Arabidopsis thaliana) (UniProt P37107); experiment: FCS
[9] = target: LHCP L11 peptide (Arabidopsis thaliana); experiment: FA; remark: listed apart in the source
[10] = target: cpSRP54 (Arabidopsis thaliana) (UniProt P37107); experiment: MST
[11] = target: cpFtsY (Arabidopsis thaliana) (UniProt O80842); experiment: FRET
[12] = target: cpFtsY (Arabidopsis thaliana) (UniProt O80842); experiment: FRET; remark: listed apart in the source
[13] = target: cpFtsY (Arabidopsis thaliana) (UniProt O80842); experiment: FRET; remark: listed apart in the source

Sequence of cpFtsY (Arabidopsis thaliana) (O80842 41-366): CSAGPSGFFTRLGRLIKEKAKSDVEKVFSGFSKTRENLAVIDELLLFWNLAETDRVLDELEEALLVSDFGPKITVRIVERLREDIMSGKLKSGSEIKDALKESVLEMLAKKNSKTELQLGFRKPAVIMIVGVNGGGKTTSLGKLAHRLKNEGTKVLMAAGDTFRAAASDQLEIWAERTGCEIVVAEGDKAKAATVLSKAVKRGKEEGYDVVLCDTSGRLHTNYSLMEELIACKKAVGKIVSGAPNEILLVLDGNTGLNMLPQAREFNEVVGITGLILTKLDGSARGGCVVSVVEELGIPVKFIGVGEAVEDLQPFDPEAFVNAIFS
Sequence of Alb3 C-terminus (Arabidopsis thaliana) (Q8LBP4 339-462): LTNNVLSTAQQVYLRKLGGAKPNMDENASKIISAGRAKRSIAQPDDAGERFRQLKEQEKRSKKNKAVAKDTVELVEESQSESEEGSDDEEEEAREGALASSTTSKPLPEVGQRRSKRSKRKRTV
Sequence of cpSRP54 (P37107 76-564): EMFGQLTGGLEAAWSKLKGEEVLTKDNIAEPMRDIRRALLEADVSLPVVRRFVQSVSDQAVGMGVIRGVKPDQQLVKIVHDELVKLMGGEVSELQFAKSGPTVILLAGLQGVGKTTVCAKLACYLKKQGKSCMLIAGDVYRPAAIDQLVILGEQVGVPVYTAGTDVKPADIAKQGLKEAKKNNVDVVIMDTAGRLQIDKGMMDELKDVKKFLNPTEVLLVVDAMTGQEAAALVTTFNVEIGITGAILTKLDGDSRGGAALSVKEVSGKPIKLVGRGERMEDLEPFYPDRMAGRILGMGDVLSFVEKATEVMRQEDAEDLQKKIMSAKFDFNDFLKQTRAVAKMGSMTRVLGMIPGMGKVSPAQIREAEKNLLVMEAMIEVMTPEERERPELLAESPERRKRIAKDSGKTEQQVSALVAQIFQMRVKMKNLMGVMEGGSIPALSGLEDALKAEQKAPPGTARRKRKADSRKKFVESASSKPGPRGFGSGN
Sequence of cpSRP54 (Arabidopsis thaliana) (P37107 76-564): as above
Sequence of RRKRp10 (cpSRP54 C-terminal peptide) (Arabidopsis thaliana) (P37107 whole entry, looked up, tested part not stated): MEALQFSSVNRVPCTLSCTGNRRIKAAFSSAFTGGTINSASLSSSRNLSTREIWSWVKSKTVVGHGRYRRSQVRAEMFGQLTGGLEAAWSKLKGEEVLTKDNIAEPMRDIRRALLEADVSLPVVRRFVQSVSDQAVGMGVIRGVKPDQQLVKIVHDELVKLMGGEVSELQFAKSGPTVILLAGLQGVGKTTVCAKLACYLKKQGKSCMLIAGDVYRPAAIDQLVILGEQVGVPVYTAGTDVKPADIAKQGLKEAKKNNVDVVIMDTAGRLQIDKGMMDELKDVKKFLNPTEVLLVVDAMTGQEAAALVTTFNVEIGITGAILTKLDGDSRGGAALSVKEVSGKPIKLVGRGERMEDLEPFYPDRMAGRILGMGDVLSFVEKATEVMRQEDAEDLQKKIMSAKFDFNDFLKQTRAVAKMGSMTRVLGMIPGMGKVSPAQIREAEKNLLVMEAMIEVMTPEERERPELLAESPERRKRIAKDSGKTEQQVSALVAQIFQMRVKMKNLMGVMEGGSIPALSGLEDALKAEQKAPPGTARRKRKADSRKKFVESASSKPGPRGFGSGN
Sequence of cpSRP54 peptide RRKRp10 RRKRp10 (Arabidopsis thaliana) (P37107 whole entry, looked up, tested part not stated): as above
Sequence of cpSRP54 NG domain (P37107 76-370): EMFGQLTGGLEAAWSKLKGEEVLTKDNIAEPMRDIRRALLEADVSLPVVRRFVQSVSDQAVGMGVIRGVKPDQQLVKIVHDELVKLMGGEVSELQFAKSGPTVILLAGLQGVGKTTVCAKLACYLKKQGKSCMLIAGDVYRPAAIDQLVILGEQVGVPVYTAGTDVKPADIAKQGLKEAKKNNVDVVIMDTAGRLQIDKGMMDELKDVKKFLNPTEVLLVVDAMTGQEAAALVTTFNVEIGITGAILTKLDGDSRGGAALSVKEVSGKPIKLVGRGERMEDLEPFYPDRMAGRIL
Sequence of cpSRP54 M domain (Arabidopsis thaliana) (P37107 371-564): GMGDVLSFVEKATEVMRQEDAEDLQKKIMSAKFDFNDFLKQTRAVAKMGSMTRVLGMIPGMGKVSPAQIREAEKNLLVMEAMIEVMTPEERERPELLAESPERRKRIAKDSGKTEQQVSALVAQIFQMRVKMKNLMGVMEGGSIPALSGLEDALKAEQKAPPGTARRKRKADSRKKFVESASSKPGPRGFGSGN

Substance	Kd [1]	Kd [2]	Kd [3]	Kd [4]	Kd [5]	Kd [6]	Kd [7]	Kd [8]	Kd [9]	Kd [10]	Kd [11]	Kd [12]	Kd [13]
cpSRP43 (from UniProt O22265)	11 nM	18000 nM and 12000 nM and 15000 nM	107 nM	390 nM	2.5 nM	1170 nM and 322 nM	390 nM	95 nM	22 nM	50 nM	–	–	–
cpSRP54 (from UniProt P37107)	–	–	–	–	–	–	–	–	–	–	130 nM	2340 nM	770 nM
cpSRP54 NG domain (from UniProt P37107)	–	–	–	–	–	–	–	–	–	–	–	12000 nM	–
